In patent US20040214275:

B1: vWF-cleaving protease derived from human plasma (protein)
chain: AAGGILHLELLVAVGPDVFQAHQEDTERYVLTNLNIGAELLRDPSLGAQFRVHLVKMVILTEPEGAPNITANLTSSLLSVCGWSQTINPEDDTDPGHADLVLYITRFDLELPDGNRQVRGVTQLGGACSPTWSCLITEDTGFDLGVTIAHEIGHSFGLEHDGAPGSGCGPSGHVMASDGAAPRAGLAWSPCSRRQLLSLLSAGRARCVWDPPRPQPGSAGHPPDAQPGLYYSANEQCRVAFGPKAVACTFAREHLDMCQALSCHTDPLDQSSCSRLLVPLLDGTECGVEKWCSKGRCRSLVELTPIAAVHGRWSSWGPRSPCSRSCGGGVVTRRRQCNNPRPAFGGRACVGADLQAEMCNTQACEKTQLEFMSQQCARTDGQPLRSSPGGASFYHWGAAVPHSQGDALCRHMCRAIGESFIMKRGDSFLDGTRCMPSGPREDGTLSLCVSGSCRTFGCDGRMDSQQVWDRCQVCGGDNSTCSPRKGSFTAGRAREYVTFLTVTPNLTSVYIANHRPLFTHLAVRIGGRYVVAGKMSISPNTTYPSLLEDGRVEYRVALTEDRLPRLEEIRIWGPLQEDADIQVYRRYGEEYGNLTRPDITFTYFQPKPRQAWVWAAVRGPCSVSCGAGLRWVNYSCLDQARKELVETVQCQGSQQPPAWPEACVLEPCPPYWAVGDFGPCSASCGGGLRERPVRCVEAQGSLLKTLPPARCRAGAQQPAVALETCNPQPCPARWEVSEPSSCTSAGGAGLALENETCVPGADGLEAPVTEGPGSVDEKLPAPEPCVGMSCPPGWGHLDATSAGEKAPSPWGSIRTGAQAAHVWTPAAGSCSVSCGRGLMELRFLCMDSALRVPVQEELCGLASKPGSRREVCQAVPCPARWQYKLAACSVSCGRGVVRRILYCARAHGEDDGEEILLDTQCQGLPRPEPQEACSLEPCPPRWKVMSLGPCSASCGLGTARRSVACVQLDQGQDVEVDEAACAALVRPEASVPCLIADCTYRWHVGTWMECSVSCGDGIQRRRDTCLGPQAQAPVPADFCQHLPKPVTVRGCWAGPCVGQGTPSLVPHEEAAAPGRTTATPAGASLEWSQARGLLFSPAPQPRRLLPGPQENSVQSSACGRQHLEPTGTIDMRGPGQADCAVAIGRPLGEVVTLRVLESSLNCSAGDMLLLWGRLTWRKMCRKLLDMTFSSKTNTLVVRQRCGRPGGGVLLRYGSQLAPETFYRECDMQLFGPWGEIVSPSLSPATSNAGGCRLFINVAPHARIAIHALATNMGAGTEGANASYILIRDTHSLRTTAFHGQQVLYWESESSQAEMEFSEGFLKAQASLRGQYWTLQSWVPEMQDPQSWKGKEGT

Experiments:
[1] = biological target: von Willebrand factor purified from human plasma cryoprecipitate (UniProt P04275)
[2] = biological target: von Willebrand factor purified from human plasma cryoprecipitate, P04275

| Molecule | vWF-cleaving activity (qualitative) [1] | vWF-cleaving activity [2] |
| --- | --- | --- |
| W897stop variant of the vWF-cleaving protease (lacking the region between the C-terminus and position W897) | a variant lacking a region between the C-terminus and the position W897 was found to have activity, although it was the result of qualitative analysis |  |
| B1 |  | activity derived from the cryoprecipitate and the FI paste were found to cleave the peptide bond between residues Tyr 842 and Met 843 |
